The data set concerns the molecule itself. In words: 2-D nonreducing/reducing SDS-PAGE.

B1: CD3 eta (transfected cDNA) (natural protein, murine, UniProt P24161-2 22-206, looked up)
chain: QSFGLLDPKLCYLLDGILFIYGVIITALYLRAKFSRSAETAANLQDPNQLYNELNLGRREEYDVLEKKRARDPEMGGKQQRRRNPQEGVYNALQKDKMAEAYSEIGTKGERRRGKGHDGLYQDSHFQAVQFGNRREREGSELTRTLGLRARPKGESTQQSSQSCASVFSIPTLWSPWPPSSSSQL
Take B1: the stoichiometry N (usually a count of units in the complex or per binding partner) came out at 2.

B2: CD3 zeta (transfected cDNA) (natural protein, murine, UniProt P24161-1 22-164, looked up)
chain: QSFGLLDPKLCYLLDGILFIYGVIITALYLRAKFSRSAETAANLQDPNQLYNELNLGRREEYDVLEKKRARDPEMGGKQQRRRNPQEGVYNALQKDKMAEAYSEIGTKGERRRGKGHDGLYQGLSTATKDTYDALHMQTLAPR
On to B2, for which the “stoichiometry N” value stood at 2.

B3: CD3 zeta (endogenous) (natural protein, murine, UniProt P24161-1 22-164, looked up)
chain: B2 chain
As to B3, the “stoichiometry N” value stood at 2.

The record behind these values is paper PMC2188614 (The Journal of Experimental Medicine, 1990).
